For data set [1], the target named is T1, Taq58 (TaqLF P685S Y686R E687K) (Thermus aquaticus, UniProt P19821 SEQ:1-544).
T1 chain: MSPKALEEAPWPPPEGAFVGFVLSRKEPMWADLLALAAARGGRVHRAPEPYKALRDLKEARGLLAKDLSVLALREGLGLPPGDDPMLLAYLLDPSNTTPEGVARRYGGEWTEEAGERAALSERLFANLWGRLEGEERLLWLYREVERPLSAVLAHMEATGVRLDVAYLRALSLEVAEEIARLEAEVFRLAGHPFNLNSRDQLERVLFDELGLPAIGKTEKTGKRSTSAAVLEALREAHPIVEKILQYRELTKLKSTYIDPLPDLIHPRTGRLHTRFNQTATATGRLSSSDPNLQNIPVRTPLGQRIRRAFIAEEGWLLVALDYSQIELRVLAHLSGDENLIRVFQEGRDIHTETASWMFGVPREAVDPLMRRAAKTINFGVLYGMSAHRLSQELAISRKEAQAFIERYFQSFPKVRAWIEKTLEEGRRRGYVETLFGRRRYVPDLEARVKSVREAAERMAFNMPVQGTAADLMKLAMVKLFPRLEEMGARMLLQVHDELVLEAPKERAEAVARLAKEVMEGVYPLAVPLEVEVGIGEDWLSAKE
Put plainly: EMSA; apparent; shifted band from 25 nM; 20 mM Tris-HCl pH 8.8, 10 mM NaCl, 5 mM MgCl2, 40 C. The note with it: label: 5'-32P on d27; primer-template, 27 bp duplex with 22 nt 5' overhang on 49N. As for the experimental part:
(§1) The affinity of variant Taq polymerases and primed DNAs was examined using a gel shift assay. The measurement was carried out in the following manner.
(§2) First, DNA in which a 27 nt of a single-stranded DNA (d27, SEQ ID NO: 50) radioactive-labeled with ³²P at 5′-terminal was annealed to a non-labeled 49 nt of a single-stranded DNA (49N, SEQ ID NO: 51) was used as a substrate DNA for the measurement of DNA binding ability. DNA polymerase proteins were added to 10 μl of Solution E [20 mM Tris-HCl, pH 8.8, 10 mM NaCl, 5 mM MgCl₂, 14 mM 2-mercaptoethanol, 0.1 mg/ml BSA and 5% (v/v) glycerol] containing 2 nM substrate DNA so as to have concentration of from 0.6 to 400 nM, and the mixture was held at 40° C. for 5 minutes. A liquid DNA-enzyme mixture was subjected to 1% agarose gel and electrophoresed in a 0.1×TAE solution [4 mM Tris base, 2 mM acetic acid and 0.1 mM EDTA]. After the termination of electrophoresis, the gel was dried, and the dried gel was exposed to an imaging plate. Typhoon TRIO+ was used to detect a labeled DNA.
Background: Mobility shift assays separate free from complexed probe on a gel.

Data set [2] concerns the target T2, Taq59 (TaqLF P685R Y686R E687R) (Thermus aquaticus, UniProt P19821 SEQ:1-544).
T2 chain: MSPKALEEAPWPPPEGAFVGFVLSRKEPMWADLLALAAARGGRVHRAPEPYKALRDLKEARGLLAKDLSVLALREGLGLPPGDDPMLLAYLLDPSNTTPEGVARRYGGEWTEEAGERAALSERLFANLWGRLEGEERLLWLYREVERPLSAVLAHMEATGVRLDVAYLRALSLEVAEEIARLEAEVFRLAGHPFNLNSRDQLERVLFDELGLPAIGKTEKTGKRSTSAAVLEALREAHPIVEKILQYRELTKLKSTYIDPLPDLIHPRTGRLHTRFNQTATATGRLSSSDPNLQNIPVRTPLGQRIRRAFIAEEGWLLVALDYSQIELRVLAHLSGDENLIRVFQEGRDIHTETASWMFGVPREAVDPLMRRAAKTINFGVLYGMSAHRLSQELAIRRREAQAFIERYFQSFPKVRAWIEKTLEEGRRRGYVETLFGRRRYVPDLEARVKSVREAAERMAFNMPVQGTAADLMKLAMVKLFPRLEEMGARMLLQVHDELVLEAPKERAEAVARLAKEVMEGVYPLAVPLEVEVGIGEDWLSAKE
Put plainly: EMSA; apparent; clear shift at 25 nM, two-step shift at 400 nM; 20 mM Tris-HCl pH 8.8, 10 mM NaCl, 5 mM MgCl2, 40 C. The note with it: label: 5'-32P on d27; primer-template, 27 bp duplex with 22 nt 5' overhang on 49N. As for the experimental part:
as §1, §2

B1: primed DNA d27/49N (dsDNA)
DNA 1: AGCTATGACCATGATTACGAATTGCTT
DNA 2: AGCTACCATGCCTGCACGAATTAAGCAATTCGTAATCATGGTCATAGCT
As to B1, the Kd in data set [1] was found to be 100 nM; in data set [2], 40 nM.

The values are drawn from patent publication US20180346889, “DNA POLYMERASE VARIANT” (KYUSHU UNIVERSITY, NATIONAL UNIVERSITY CORPORATION, published 2018).
